Laboratory results reported in patent US20240270821A1, “GIP/GLP1/GCG TRI-RECEPTOR AGONISTS AND USES THEREOF” (priority 2023, published 2024).
Residue numbers refer to the chain shown, from its start.

T1: human GIP receptor (human) (UniProt P48546)
T1 sequence (looked up): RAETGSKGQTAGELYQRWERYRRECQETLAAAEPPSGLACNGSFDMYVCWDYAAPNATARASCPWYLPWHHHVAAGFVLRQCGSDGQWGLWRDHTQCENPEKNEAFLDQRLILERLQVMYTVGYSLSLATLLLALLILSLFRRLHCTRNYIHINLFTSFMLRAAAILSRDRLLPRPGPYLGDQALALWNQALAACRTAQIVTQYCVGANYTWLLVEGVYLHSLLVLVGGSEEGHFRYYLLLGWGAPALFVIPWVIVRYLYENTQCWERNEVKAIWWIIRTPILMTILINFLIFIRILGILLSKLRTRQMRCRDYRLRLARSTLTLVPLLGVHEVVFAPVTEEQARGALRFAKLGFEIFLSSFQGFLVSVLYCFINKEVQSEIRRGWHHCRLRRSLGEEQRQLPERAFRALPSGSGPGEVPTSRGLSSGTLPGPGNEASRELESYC

B1: Example 1066 (peptide)
chain: YXQGTFTSDXSXXLDXKAQXAFIEXLLEGGPSSGAPPPSGSEE
modifications: non-natural residues, Glu-γGlu-C18 diacid acylation, C-terminal amide; synthetic construct; SITE 2: note = 2-Aminoisobutyric Acid; SITE 10: note = 3-(4-Pyridyl)-L-alanine; SITE 12: note = L-ornithine; SITE 13: note = alpha-methyl-leucine; SITE 16: note = L-ornithine; SITE 17: note = Lysine is chemically modified through conjugation of the epsilon-amino group of the Lys
B2: Example 1074 (peptide)
chain: B1 chain with X12Q, L27I, E28A
modifications: non-natural residues; C18 diacid-γ-Glu acyl on Lys; C-terminal amide; synthetic construct; SITE 2: note = 2-Aminoisobutyric Acid; SITE 10: note = 3-(4-Pyridyl)-L-alanine; SITE 13: note = alpha-methyl-leucine; SITE 16: note = L-ornithine; SITE 17: note = Lysine is chemically modified through conjugation of the epsilon-amino group of the Lysine side chain with D-Glutami
B3: Example 1069 (peptide)
chain: B1 chain with X25Y, E28A
modifications: non-natural residues; acylated Lys; C-terminal amide; synthetic construct; SITE 2: note = 2-Aminoisobutyric Acid; SITE 10: note = 3-(4-Pyridyl)-L-alanine; SITE 12: note = L-ornithine; SITE 13: note = alpha-methyl-leucine; SITE 16: note = L-ornithine; SITE 17: note = Lysine is chemically modified through conjugation of the epsilon-amino group of the Lys
B4: Example 1068 (peptide)
chain: B1 chain with X25Y, E28A
modifications: C-terminal amide; lysine acylated with (γ-Glu)2-C18 diacid; synthetic construct; SITE 2: note = 2-Aminoisobutyric Acid; SITE 10: note = 3-(4-Pyridyl)-L-alanine; SITE 12: note = L-ornithine; SITE 13: note = alpha-methyl-leucine; SITE 16: note = L-ornithine; SITE 17: note = Lysine is chemically modified through conjugation of the epsilon-amino group of the Lys
B5: Example 1067 (peptide)
chain: B1 chain
modifications: non-natural residues; lysine acylated with C18 diacid; C-terminal amide; synthetic construct; SITE 2: note = 2-Aminoisobutyric Acid; SITE 10: note = 3-(4-Pyridyl)-L-alanine; SITE 12: note = L-ornithine; SITE 13: note = alpha-methyl-leucine; SITE 16: note = L-ornithine; SITE 17: note = Lysine is chemically modified through conjugation of the epsilon-amino group of the Lys
B6: Example 1072 (peptide)
chain: B1 chain with X12Q, E24Q, L27I
modifications: Aib, 4Pal, αMeL, Orn, Me4Pal, αMeY; acylated Lys; C-terminal amide; synthetic construct; SITE 2: note = 2-Aminoisobutyric Acid; SITE 10: note = 3-(4-Pyridyl)-L-alanine; SITE 13: note = alpha-methyl-leucine; SITE 16: note = L-ornithine; SITE 17: note = Lysine is chemically modified through conjugation of the epsilon-amino group of the Lysine side chain with D-Glutami
B7: Example 1070 (peptide)
chain: B1 chain with X12Q, L27I
modifications: Aib, 4Pal, αMeL, Orn, Me4Pal, αMeY; acylated Lys; C-terminal amide; synthetic construct; SITE 2: note = 2-Aminoisobutyric Acid; SITE 10: note = 3-(4-Pyridyl)-L-alanine; SITE 13: note = alpha-methyl-leucine; SITE 16: note = L-ornithine; SITE 17: note = Lysine is chemically modified through conjugation of the epsilon-amino group of the Lysine side chain with D-Glutami
B8: Example 1071 (peptide)
chain: YXQGTFTSDXSQXLDXKAQXAFIEXLIEGGPSSGAPPPSGSEEE
modifications: acylated Lys e-γGlu-C18 diacid; non-natural residues; C-terminal amide; synthetic construct; SITE 2: note = 2-Aminoisobutyric Acid; SITE 10: note = 3-(4-Pyridyl)-L-alanine; SITE 13: note = alpha-methyl-leucine; SITE 16: note = L-ornithine; SITE 17: note = Lysine is chemically modified through conjugation of the epsilon-amino group of the Lysine side chain with D-Glutami
B9: Example 1081 (peptide)
chain: B8 chain with A21Q, E28A
modifications: Aib, 4Pal, Orn, Me4Pal, alpha-methyl-Tyr, lipidated Lys, amide; synthetic construct; SITE 2: note = 2-Aminoisobutyric Acid; SITE 10: note = 3-(4-Pyridyl)-L-alanine; SITE 13: note = alpha-methyl-leucine; SITE 16: note = L-ornithine; SITE 17: note = Lysine is chemically modified through conjugation of the epsilon-amino group of the Lysine side chain with D-Glutami
B10: Example 1077 (peptide)
chain: B8 chain with E24Q
modifications: Glu-γGlu-C18 diacid on Lys; non-natural residues; amide; synthetic construct; SITE 2: note = 2-Aminoisobutyric Acid; SITE 10: note = 3-(4-Pyridyl)-L-alanine; SITE 13: note = alpha-methyl-leucine; SITE 16: note = L-ornithine; SITE 17: note = Lysine is chemically modified through conjugation of the epsilon-amino group of the Lysine side chain with (Glu)-(ga)
B11: Example 1073 (peptide)
chain: B8 chain with E24Q
modifications: non-natural residues, acylated Lys (γGlu-C18 diacid), C-terminal amide; synthetic construct; SITE 2: note = 2-Aminoisobutyric Acid; SITE 10: note = 3-(4-Pyridyl)-L-alanine; SITE 13: note = alpha-methyl-leucine; SITE 16: note = L-ornithine; SITE 17: note = Lysine is chemically modified through conjugation of the epsilon-amino group of the Lysine side chain with D-Glutami
B12: Example 1083 (peptide)
chain: B8 chain with E24Q, I27L
modifications: Aib, 4Pal, Orn, Me4Pal, αMeY; acylated lysine; amide; synthetic construct; SITE 2: note = 2-Aminoisobutyric Acid; SITE 10: note = 3-(4-Pyridyl)-L-alanine; SITE 13: note = alpha-methyl-leucine; SITE 16: note = L-ornithine; SITE 17: note = Lysine is chemically modified through conjugation of the epsilon-amino group of the Lysine side chain with D-Glutami
B13: Example 1076 (peptide)
chain: B8 chain with E24Q
modifications: non-natural residues (Aib, 4Pal, Orn, Me4Pal, αMeY); lipidated K; amide; synthetic construct; SITE 2: note = 2-Aminoisobutyric Acid; SITE 10: note = 3-(4-Pyridyl)-L-alanine; SITE 13: note = alpha-methyl-leucine; SITE 16: note = L-ornithine; SITE 17: note = Lysine is chemically modified through conjugation of the epsilon-amino group of the Lysine side chain with D-Glutami
B14: Example 1084 (peptide)
chain: B8 chain with A21Q, I27L, E28A
modifications: not fully specified; Lys acylated γGlu-C18 diacid; non-natural residues; C-terminal amide; synthetic construct; SITE 2: note = 2-Aminoisobutyric Acid; SITE 10: note = 3-(4-Pyridyl)-L-alanine; SITE 13: note = alpha-methyl-leucine; SITE 16: note = L-ornithine; SITE 17: note = Lysine is chemically modified through conjugation of the epsilon-amino group of the Lysine side chain with D-Glutami
B15: Example 1082 (peptide)
chain: B8 chain with I27L, E28A
modifications: Lys acylated γGlu-C18 diacid; non-natural residues; C-amide; synthetic construct; SITE 2: note = 2-Aminoisobutyric Acid; SITE 10: note = 3-(4-Pyridyl)-L-alanine; SITE 13: note = alpha-methyl-leucine; SITE 16: note = L-ornithine; SITE 17: note = Lysine is chemically modified through conjugation of the epsilon-amino group of the Lysine side chain with D-Glutami
B16: Example 103 (peptide)
chain: YXQGTFTSDFSXXLDKKAQXAFIEWLLAGGPSSGEPPPSGE
modifications: synthetic construct; SITE 2: note = 2-Aminoisobutyric Acid; SITE 12: note = L-ornithine; SITE 13: note = alpha-methyl-leucine; SITE 17: note = Lysine is chemically modified through conjugation of the epsilon-amino group of the Lysine side chain with (2-[2-(2-Amino-ethoxy)-ethoxy]-acetyl)-(gamma-Glu)
B17: Example 1085 (peptide)
chain: B16 chain with F10X, X12Q, W25Y, L27I, E35A
modifications: non-natural residues; lipidated Lys; C-terminal amide; synthetic construct; SITE 2: note = 2-Aminoisobutyric Acid; SITE 10: note = 3-(4-Pyridyl)-L-alanine; SITE 13: note = alpha-methyl-leucine; SITE 17: note = Lysine is chemically modified through conjugation of the epsilon-amino group of the Lysine side chain with D-Glutamic acid-(gamma-Glu)-CO-(CH2)16

biological target: hGLP-1R (Homo sapiens, UniProt P43220); experiment: cell-based or functional assay
Sequence (P43220 24-463): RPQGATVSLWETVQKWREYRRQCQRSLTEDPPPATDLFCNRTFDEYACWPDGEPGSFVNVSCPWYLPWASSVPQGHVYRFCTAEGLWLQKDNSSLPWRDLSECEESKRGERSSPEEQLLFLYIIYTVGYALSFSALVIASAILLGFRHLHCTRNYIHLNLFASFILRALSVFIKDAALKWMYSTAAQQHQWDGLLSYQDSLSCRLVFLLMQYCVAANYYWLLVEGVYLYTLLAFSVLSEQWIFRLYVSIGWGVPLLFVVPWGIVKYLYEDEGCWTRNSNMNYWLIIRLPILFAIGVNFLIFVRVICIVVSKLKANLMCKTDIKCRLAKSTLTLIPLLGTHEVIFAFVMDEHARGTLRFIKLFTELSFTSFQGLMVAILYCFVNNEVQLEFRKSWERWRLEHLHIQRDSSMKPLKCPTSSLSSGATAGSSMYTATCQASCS

Row | Binder | Relative cAMP EC50 [nM] | cAMP Rel EC50 (1% HSA) [nM] | cAMP Rel EC50, nM (in the presence of 1% HSA) [nM]
1 | B1 | 9.8 | 1850 | –
2 | B2 | 0.794 | 101 | –
3 | B3 | 8.87 | 1290 | –
4 | B4 | 11.6 | 1330 | –
5 | B5 | 17.6 | 2610 | –
6 | B6 | 0.889 | 95.1 | –
7 | B7 | 1.54 | 321 | –
8 | B8 | 2.06 | 425 | –
9 | B9 | 1.29 | 151 | –
10 | B10 | 1.48 | 408 | –
11 | B11 | 1.09 | 114 | –
12 | B12 | 7.76 | 547 | –
13 | B13 | 1.47 | 187 | –
14 | B14 | 10.3 | 761 | –
15 | B15 | 4.13 | 677 | –
16 | B16 | 3.27 | – | 482
17 | B17 | 1.28 | 188 | –

biological target: T1, human GIP receptor (human); experiment: cell-based or functional assay

Row | Binder | Relative cAMP EC50 [nM] | cAMP Rel EC50 (1% HSA) [nM] | cAMP Rel EC50, nM (in the presence of 1% HSA) [nM]
18 | B1 | 0.446 | 69.9 | –
19 | B2 | 0.0745 | 8.49 | –
20 | B3 | 0.417 | 39.5 | –
21 | B4 | 0.211 | 20.2 | –
22 | B5 | 0.471 | 86.4 | –
23 | B6 | 0.157 | 9.94 | –
24 | B7 | 0.167 | 27.3 | –
25 | B8 | 0.261 | 40.2 | –
26 | B9 | 0.105 | 8.44 | –
27 | B10 | 0.23 | 27.8 | –
28 | B11 | 0.201 | 15.7 | –
29 | B12 | 0.328 | 20.5 | –
30 | B13 | 0.174 | 20.2 | –
31 | B14 | 0.0975 | 17.2 | –
32 | B15 | 0.099 | 12.3 | –
33 | B16 | 0.2 | – | 35.1
34 | B17 | 0.0827 | 9.84 | –

biological target: human glucagon receptor (human) (UniProt P47871); experiment: cell-based or functional assay
Sequence (P47871 26-477): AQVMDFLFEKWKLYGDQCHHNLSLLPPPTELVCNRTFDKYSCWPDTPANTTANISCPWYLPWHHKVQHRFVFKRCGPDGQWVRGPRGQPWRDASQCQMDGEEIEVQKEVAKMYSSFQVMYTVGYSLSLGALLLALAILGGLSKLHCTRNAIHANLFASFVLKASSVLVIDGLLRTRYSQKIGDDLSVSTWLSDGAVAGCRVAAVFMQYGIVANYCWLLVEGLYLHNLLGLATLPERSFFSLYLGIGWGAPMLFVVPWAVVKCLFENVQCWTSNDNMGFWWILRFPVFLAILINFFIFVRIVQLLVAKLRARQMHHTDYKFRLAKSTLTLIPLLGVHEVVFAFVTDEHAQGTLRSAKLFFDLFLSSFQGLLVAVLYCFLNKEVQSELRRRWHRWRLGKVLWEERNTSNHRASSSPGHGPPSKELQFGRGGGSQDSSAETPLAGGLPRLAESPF

Row | Binder | Relative cAMP EC50 [nM] | cAMP Rel EC50 (1% HSA) [nM] | cAMP Rel EC50, nM (in the presence of 1% HSA) [nM]
35 | B1 | 25.4 | 4260 | –
36 | B2 | 22.8 | 1990 | –
37 | B3 | 21.2 | 2160 | –
38 | B4 | 4.8 | 295 | –
39 | B5 | 12.6 | 1860 | –
40 | B6 | 10.5 | 914 | –
41 | B7 | 20.2 | 1940 | –
42 | B8 | 23.5 | 2990 | –
43 | B9 | 19.7 | 2130 | –
44 | B10 | 18.8 | 3160 | –
45 | B11 | 12.3 | 1490 | –
46 | B12 | 15 | 1030 | –
47 | B13 | 59 | 1650 | –
48 | B14 | 11.5 | 1390 | –
49 | B15 | 12.3 | 1530 | –
50 | B16 | 10.5 | – | 2590
51 | B17 | 11.6 | 1370 | –
